Data reported in US20130023483A1.
Square brackets hold non-standard residues; d marks the D form. Oic = O=C(O)[C@@H]1C[C@@H]2CCCC[C@@H]2N1; 1Nal = N[C@@H](Cc1cccc2ccccc12)C(=O)O; 2Nal = N[C@@H](Cc1ccc2ccccc2c1)C(=O)O; d1Nal = N[C@H](Cc1cccc2ccccc12)C(=O)O; Tic = O=C(O)[C@@H]1Cc2ccccc2CN1; dTic = O=C(O)[C@H]1Cc2ccccc2CN1; dOrn = NCCC[C@@H](N)C(=O)O; Orn = NCCC[C@H](N)C(=O)O; Dab = NCC[C@H](N)C(=O)O; Abu = CC[C@H](N)C(=O)O

Biological target: chemokine receptor CXCR7 (RDC1) (UniProt P25106)
Assay: cell-based or functional assay

chemokine receptor CXCR7 (RDC1), sequence (P25106 whole entry): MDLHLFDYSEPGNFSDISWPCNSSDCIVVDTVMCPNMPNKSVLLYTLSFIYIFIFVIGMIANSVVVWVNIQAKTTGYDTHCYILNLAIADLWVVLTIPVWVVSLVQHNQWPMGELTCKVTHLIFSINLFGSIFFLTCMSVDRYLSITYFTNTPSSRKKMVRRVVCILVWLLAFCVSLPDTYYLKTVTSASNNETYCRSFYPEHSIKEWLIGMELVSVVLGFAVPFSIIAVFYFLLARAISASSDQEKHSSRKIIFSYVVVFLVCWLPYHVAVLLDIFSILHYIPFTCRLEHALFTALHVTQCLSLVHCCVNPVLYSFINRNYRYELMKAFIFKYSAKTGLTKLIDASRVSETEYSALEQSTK

Row | Substance | β-Arrestin EC50
1 | cyclo(-1Nal-^DArg-Ile-Arg-^DPro-Azt-) (peptide) | 41.2 nM
2 | cyclo(-1Nal-^DArg-Trp-Arg-^DPro-Azt-) (peptide) | 146 nM
3 | cyclo(-1Nal-^DHis-Ile-Arg-^DPro-Azt-) (peptide) | 85.7 nM
4 | cyclo(-1Nal-^DHis-Tyr-Arg-^DPro-Azt-) (peptide) | 44.4 nM
5 | cyclo(-His(Me)-^DPhe-Trp-Arg-^DPro-Tic-) (peptide) | 32.5 nM
6 | cyclo(-Trp-^DArg-Ile-Arg-^DPro-Azt-) (peptide) | 47.7 nM
7 | cyclo(-Trp-^DArg-Trp-Arg-^DPro-Azt-) (peptide) | 170 nM
8 | cyclo(-Trp-^DArg-Trp-Ile-^DPro-Azt-) (peptide) | 208 nM
9 | cyclo(-Trp-^DHis-Ile-Arg-^DPro-Azt-) (peptide) | 344 nM
10 | cyclo(-Trp-^DHis-Trp-Arg-^DPro-Azt-) (peptide) | 342 nM
11 | cyclo(-Trp-^DPhe-Trp-Arg-^DPip-Pro-) (peptide) | 78.7 nM
12 | cyclo(-Trp-^DPhe-Trp-Arg-^DPro-(4S)-Hyp(Bn)-) (peptide) | 1.7 nM
13 | cyclo(-Trp-^DPhe-Trp-Arg-^DPro-Tiq-) (peptide) | 0.4 nM
14 | cyclo(-Trp-^DThr-Tyr-Arg-^DPro-Azt-) (peptide) | 148 nM
15 | cyclo(A[dF]WR[dP][Tic]) | 163 nM
16 | cyclo(F[dF]WR[dP][Tic]) | 22.5 nM
17 | cyclo(H[d1Nal]HW[dP][Tic]) | 269 nM
18 | cyclo(H[dF]WR[dP][Tic]) | 32.1 nM
19 | cyclo(H[dW]HR[dP][Tic]) | 226 nM
20 | cyclo(I[dH]WR[dP][Tic]) | 70.8 nM
21 | cyclo(I[dR]IR[dP][Tic]) | 34.3 nM
22 | cyclo(I[dW]HR[dP][Tic]) | 317 nM
23 | cyclo(R[dF]WR[dP][Tic]) | 12.8 nM
24 | cyclo(R[dH]WR[dP][Tic]) | 144 nM
25 | cyclo(R[dW]HR[dP][Tic]) | 234 nM
26 | cyclo(W[dF]FR[dP][Tic]) | 75.7 nM

Row | Substance | β-Arrestin EC50
27 | cyclo(W[dF]IR[dP][Tic]) | 148 nM
28 | cyclo(W[dF]RR[dP][Tic]) | 178 nM
29 | cyclo(W[dF]WH[dP][Tic]) | 18.3 nM
30 | cyclo(W[dF]WK[dP][Tic]) | 16.5 nM
31 | cyclo(W[dF]WR[dP][Oic]) | 0.8 nM
32 | cyclo(W[dF]WR[dP][Tic]) | 4.8 nM
33 | cyclo(W[dF]WR[dTic]P) | 83.6 nM
34 | cyclo(W[dF]WY[dP][Tic]) | 94.5 nM
35 | cyclo(W[dF]W[Dab][dP][Tic]) | 12.6 nM
36 | cyclo(W[dF]W[Orn][dP][Tic]) | 12.1 nM
37 | cyclo(W[dF]YR[dP][Tic]) | 326 nM
38 | cyclo(W[dF][2Nal]R[dP][Tic]) | 16.9 nM
39 | cyclo(W[dH]WR[dP][Tic]) | 204 nM
40 | cyclo(W[dI]WR[dP][Tic]) | 63.4 nM
41 | cyclo(W[dOrn]WR[dP][Tic]) | 111 nM
42 | cyclo(W[dR]HR[dP][Tic]) | 348 nM
43 | cyclo(W[dR]HW[dP][Tic]) | 217 nM
44 | cyclo(W[dR]WR[dP][Tic]) | 128 nM
45 | cyclo(W[dW]WR[dP][Tic]) | 64.9 nM
46 | cyclo(Y[dF]WR[dP][Tic]) | 11.5 nM
47 | cyclo([1Nal][dF]WR[dP][Tic]) | 61.6 nM
48 | cyclo([1Nal][dH]IR[dP][Tic]) | 347 nM
49 | cyclo([1Nal][dR]WR[dP][Tic]) | 280 nM
50 | cyclo([2Nal][dF]WR[dP][Tic]) | 8.9 nM
51 | cyclo([Abu][dR]RW[dP][Tic]) | 97.5 nM
